Residue numbers refer to the chain shown, from its start.
B1: IL4R-CHI-07 (antibody, V domains shown)
VH: QVQLQQSGAELVKPGASVKLSCKASGYTFTEYTIHWVKQRSGQGLEWIGWFYPGRGSIKYNEKFKDKATLTADKSSSTVYMELSRLTSEDSAVYFCTRHEYRGSNYAMDYWGQGTSVTVSS
VL: DVLMTQTPLSLPVSLGDQASISCRSSQSIVHSSGNTYLQWYLQKPGQSPKLLIYKVSNRFSGVPDRFSGSGSGTDFTLKISRVEAEDLGVYYCFQGSHVPPTFGGGTKLEIK
notes: Chimeric IgG: murine variable regions on human IgG4 CH1-CH2-CH3 and human kappa constant regions; also called anti-IL4Rα chimeric antibody 07
B2: IL4R-CHI-04 (antibody, V domains shown)
VH: DVQLQESGPGLVKPSQSLSLTCTVTGYSITSDYAWNWIRQFPGNKLEWMGYISYSGSSSYNPSLKSRISITRDTSKNQFFLQLNSVTTDDTATYYCAGGGLRRRGLFDYWGQGTTLTVSS
VL: QIVLSQSPAILSASPGEKVTMTCRATSSVTYMHWYQQKPGSSPKPWIYATSNLASGVPARFSGSGSGTSYSLTISRVEAEDTATYYCQQWSSIPLTFGAGTKLELK
notes: Chimeric IgG: murine variable regions (from hybridoma IL4R-SFM-04) on human IgG4 CH1-CH2-CH3 and human kappa constant regions; also called anti-IL4Rα chimeric antibody 04
B3: IL4R-CHI-17 (antibody, V domains shown)
VH: QAYLQQSGAELVRPGASVKMSCKASGYTFTSYNMHWAKQTPRQGLEWIGSIYPGNGDTSYNQKFKGKATLTVDKSSSTAYMQLSSLTSEDSAVYFCARGGRLRRGDWFAYWGQGTLVTVSA
VL: DIQMTQSPASLSASVGETVTITCRASENIYSYLIWYQQKQGKSPQLLVYDAKTLAEGVPSRFSGSGSGSQFSLKINSLQPEDFGTYYCQHHYGTPLTFGGGTKLELK
notes: Chimeric IgG: murine variable regions on human IgG4 CH1-CH2-CH3 and human kappa constant regions; also called anti-IL4Rα chimeric antibody 17
B4: IL4R-CHI-18 (antibody, V domains shown)
VH: QVQLKQSGPGLVQPSQSLSVTCTVSGFSLTNYGVHWVRQSPGKGLEWLGVIWSGGSTDYNAAFKSRLSISKDNSKSQVFFKMNSLQADDTAIYYCARNKGTRPVFDYWGQGTTLTVSS
VL: DIQMTQSPASLSASVGETVTITCRASENIYSYLAWYQQKQGKSPQLLVYNAKTLAEGVPSRFSGSGSGTQFSLKINSLQPEDFGSYYCQHYVSPLTFGAGTKLEVK
notes: Chimeric IgG: murine variable regions on human IgG4 CH1-CH2-CH3 and human kappa constant regions; also called anti-IL4Rα chimeric antibody 18
B5: IL4R-CHI-13 (antibody, V domains shown)
VH: EVQLQQSGPVLVKPGASVKMSCKASGYTFTDYYMNWVKQRHGKSLDWIGTINPYNGGTGYNQKFKGKATLTVDKSSSTAYMELNSLTSEDSAVYFCARSLLRRRGAMDYWGQGTSVTVSS
VL: DIVLTQSPASLVVSLGQRATISCRASKSVSTSGYGYIHWYRQKPGQPPKLLIYLVSNLESGVPARFSGSGSGTDFTLNIHPVEEEDAATYYCQHIRELYTFGGGTKLEIK
notes: Chimeric IgG: murine variable regions on human IgG4 CH1-CH2-CH3 and human kappa constant regions; also called anti-IL4Rα chimeric antibody 13
B6: IL4R-CHI-14 (antibody, V domains shown)
VH: EVMLVESGGGLVKPGGSLKLSCAASGFTFSSYAMSWVRQTPEKRLEWVAIISGGGDSTYYPDSVKGRFTISRDNAKNTLYLQMSSLRSEDTALYFCARLHYWYFDFWGTGTTVTVSS
VL: DIQMTQSSSSFSVSLGDRVTITCKASEDLYNRLAWYQQKPGNAPRLLISGATSLETGVPSRFSGSGSGRDYTLIITSLQTEDVATYYCQQYWRNPYTFGGGTKLEIK
notes: Chimeric IgG: murine variable regions on human IgG4 CH1-CH2-CH3 and human kappa constant regions; also called anti-IL4Rα chimeric antibody 14
B7: IL4R-hum-04H7L1 (antibody, V domains shown)
VH: EVQLQESGPGLVKPSETLSLTCTVSGYSISSDYAWNWIRQPPGKGLEWIGYISYSGSSSYNPSLKSRVTISVDTSKNQFSLKLSSVTAADTAVYYCARGGLRRRGLFDYWGQGTTVTVSS
VL: DIQLTQSPSFLSASVGDRVTITCRATSSVTYMHWYQQKPGKAPKPWIYATSNLASGVPSRFSGSGSGTEFTLTISSLQPEDFATYYCQQWSSIPLTFGQGTKLEIK
notes: also called humanized antibody of IL4R-CHI-04, H7 + L1
B8: IL4R-hum-07H1L3 (antibody, V domains shown)
VH: EVQLVQSGAEVKKPGSSVKVSCKASGYTFSEYTIHWVRQAPGQGLEWMGWFYPGRGSIKYNEKFKDRVTITADKSTSTAYMELSSLRSEDTAVYYCTRHEYRGSNYAMDYWGQGTTVTVSS
VL: DIVMTQSPDSLAVSLGERATINCRSSQSIVHSSGNTYLQWYQQKPGQSPKLLIYKVSNRFSGVPDRFSGSGSGTDFTLTISSLQAEDVAVYYCFQGSHVPPTFGGGTKVEIK
notes: also called IL4AR-hum-07H1L3; humanized antibody of IL4R-CHI-07, H1 + L3
B9: IL4R-hum-17L1H4 (antibody, V domains shown)
VH: EVQLVQSGAEVKKPGASVKVSCKASGYTFTSYNMHWARQAPGQRLEWMGSIYPGNGDTSYNQKFKGRVTITVDKSASTAYMELSSLRSEDTAVYYCARGGRLRRGDWFAYWGQGTLVTVSS
VL: DIQMTQSPSSLSASVGDRVTITCRASENIYSYLIWYQQKPGKSPKLLIYDAKTLAEGVPSRFSGSGSGTDFTLTISSLQPEDFATYYCQHHYGTPLTFGGGTKVEIK
notes: also called humanized antibody of IL4R-CHI-17, L1 + H4
B10: IL4R-hum-18H5L1 (antibody, V domains shown)
VH: EVTLKESGPVLVKPTETLTLTCTVSGFSLTNYGVHWIRQPPGKALEWLGVIWSGGSTDYNAAFKSRLTISKDNSKSQVVLTMTNMDPVDTATYYCARNKGTRPVFDYWGQGTTVTVSS
VL: DIQMTQSPSSLSASVGDRVTITCRASENIYSYLAWYQQKPGKAPKLLIYNAKTLAEGVPSRFSGSGSGTDFTLTISSLQPEDFATYYCQHYVSPLTFGQGTKLEIK
notes: also called humanized antibody of IL4R-CHI-18, H5 + L1
B11: IL4R-hum-13H1aL2a (antibody, V domains shown)
VH: EVQLVQSGAEVKKPGASVKVSCKASGYTFTDYYMNWVRQAPGQRLEWMGTINPYNAGTGYNQKFKGRVTITVDKSASTAYMELSSLRSEDTAVYYCARSLLRRRGAMDYWGQGTTVTVSS
VL: DIVLTQSPDSLAVSLGERATINCRASKSVSTSGYGYIHWYQQKPGQPPKLLIYLVDNLESGVPDRFSGSGSGTDFTLTISSLQAEDVATYYCQHIRELYTFGGGTKVEIK
notes: also called humanized antibody of IL4R-CHI-13, H1a + L2a
B12: IL4R-hum-14L2H2 (antibody, V domains shown)
VH: B6 VH with M3Q, K13Q, K19R, T40A, T78S, S84N, S88A, L93V, F95Y, T109Q
VL: DIQMTQSPSSLSASVGDRVTITCKASEDLYNRLAWYQQKPGKAPKLLISGATSLETGVPSRFSGSGSGRDFTLTISSLQPEDFATYYCQQYWRNPYTFGGGTKVEIK
notes: also called humanized antibody of IL4R-CHI-14, L2 + H2

Target: T1, hIL4Rα-ECD(26-232)-His (human, UniProt P24394 26-232)
T1 construct: Labelled with biotin (NH2-reactive) for the ELISA; unlabelled as analyte in Biacore; also called hIL4Rα-ECD-His
Assay: SPR (Biacore 8K), antibody captured on Protein A, antigen as analyte, 1:1 model

Q: For B1, which Kd is on record?
A: 0.294 nM

Q: How did the Kd turn out when B2 was run?
A: 0.513 nM

Q: B3 was tested. Which Kd did it give?
A: 0.289 nM

Q: Which Kd does the source give for B4 here?
A: 0.0943 nM

Q: How did the Kd turn out when B5 was run?
A: 0.0779 nM

Q: For B6, which Kd is on record?
A: 0.097 nM

Target: T1, hIL4Rα-ECD(26-232)-His
Assay: as above
Remark: another data set of the same source

Q: For B7, which Kd is on record?
A: 0.233 nM

Q: And the koff?
A: 0.000445 s⁻¹

Q: What about the kon of the same binder?
A: 1.91e+06 M⁻¹ s⁻¹

Q: B8 was tested. Which Kd did it give?
A: 0.315 nM

Q: What about the koff of the same binder?
A: 0.000468 s⁻¹

Q: What about the kon of the same binder?
A: 1.48e+06 M⁻¹ s⁻¹

Q: Which Kd does the source give for B9 here?
A: 0.283 nM

Q: What about the koff of the same binder?
A: 0.000302 s⁻¹

Q: And the kon?
A: 1.07e+06 M⁻¹ s⁻¹

Q: B10 was tested. Which Kd did it give?
A: 0.0763 nM

Q: What about the koff of the same binder?
A: 0.000151 s⁻¹

Q: What about the kon of the same binder?
A: 1.98e+06 M⁻¹ s⁻¹

Q: What does the source list for B11?
A: Kd: 0.0692 nM; koff: 9.25e-05 s⁻¹; kon: 1.34e+06 M⁻¹ s⁻¹

Q: How did the Kd turn out when B12 was run?
A: 0.154 nM

Q: And the koff?
A: 5.07e-05 s⁻¹

Q: What about the kon of the same binder?
A: 329000 M⁻¹ s⁻¹

Target: T2, hIL4Rα-ECD(26-232)-mFc (human)
T2 construct: also called IL4Rα-ECD protein
Assay: competition ELISA, hIL4R-ECD-mFc captured by anti-mFc, biotinylated human IL4 as competitor

Q: B7 was tested. Which IC50 did it give?
A: 1.52 nM

Q: How did the IC50 turn out when B8 was run?
A: 1.41 nM

Q: B9 was tested. Which IC50 did it give?
A: 1.82 nM

Q: Which IC50 does the source give for B10 here?
A: 2.39 nM

Q: With B11 as the binder, how does the IC50 read?
A: 1.92 nM

Q: How did the IC50 turn out when B12 was run?
A: 2.2 nM

From EP4755920A1 (Simcere Pharmaceutical Co., Ltd., dated 2026)
